The source of these data is the Human Domainome abundance scans (Beltran et al. 2025).

± gives the uncertainty stated by the source.

B1: Lysine-specific demethylase 2B, residues 656 to 722; numbered along this chain, Q8NHM5 (parent)
chain: LPHTAVCLVCGEAGKEDTVEEEEGKFNLMLMECSICNEIIHPGCLKIKESEGVVNDELPNCWECPKC

The data set covers variants of B1. Briefly: abundance fitness (aPCA) (normalised: wild type 0, dead -1); higher = more abundant; growth selection in yeast, the domain comes from the species named. To be noted: Homo sapiens.
LPHTAVCLVCGEAGKEDTVEEEEGKFNLMLMECSICNEIIHPGCLKIKESEGVVNMELPNCWECPKC: the abundance fitness stood at 0.123 ± 0.14.
Consider LPHTAVCLVCGEAGKEDTVEEEEGKFNLMLMECSICNEIIHPGCLKIKESEGVVNGELPNCWECPKC, for which the abundance fitness stood at 0.079 ± 0.072.
With LPHTAVCLVCGEAGKEDTVEEEEGKFNLMLMECSICNEIIHPGCLKIKESEGVVNAELPNCWECPKC the figure was 0.001 ± 0.066; with LPHTAVCLVCGEAGKEDTVEEEEGKFNLMLMECSICNEIIHPGCLKIKESEGVVNEELPNCWECPKC, -0.075 ± 0.069.
With LPHTAVCLVCGEAGKEDTVEEEEGKFNLMLMECSICNEIIHPGCLKIKESEGVVNNELPNCWECPKC the figure was -0.017 ± 0.095.
Turning to LPHTAVCLVCGEAGKEDTVEEEEGKFNLMLMECSICNEIIHPGCLKIKESEGVVNCELPNCWECPKC, the abundance fitness is -0.233 ± 0.31.
Then LPHTAVCLVCGEAGKEDTVEEEEGKFNLMLMECSICNEIIHPGCLKIKESWGVVNDELPNCWECPKC, with -0.14 ± 0.12.
For the variant LPHTAVCLVCGEAGKEDTVEEEEGKFNLMLMECSICNEIIHPGCLKIKESYGVVNDELPNCWECPKC, the abundance fitness was -0.172 ± 0.15.
With LPHTAVCLVCGEAGKEDTVEEEEGKFNLMLMECSICNEIIHPGCLKIKESTGVVNDELPNCWECPKC, the abundance fitness was found to be 0.072 ± 0.096.
On to LPHTAVCLVCGEAGKEDTVEEEEGKFNLMLMECSICNEIIHPGCLKIKESVGVVNDELPNCWECPKC, for which the abundance fitness was -0.124 ± 0.076.
For LPHTAVCLVCGEAGKEDTVEEEEGKFNLMLMECSICNEIIHPGCLKIKESSGVVNDELPNCWECPKC, the abundance fitness was -0.131 ± 0.098.
Take LPHTAVCLVCGEAGKEDTVEEEEGKFNLMLMECSICNEIIHPGCLKIKESEGLVNDELPNCWECPKC: the abundance fitness was -0.119 ± 0.081.
Then LPHTAVCLVCGEAGKEDTVEEEEGKFNLMLMECSICNEIIHPGCLKIKESEGTVNDELPNCWECPKC, with 0.078 ± 0.11; and LPHTAVCLVCGEAGKEDTVEEEEGKFNLMLMECSICNEIIHPGCLKIKESEGRVNDELPNCWECPKC, with -0.148 ± 0.073; and LPHTAVCLVCGEAGKEDTVEEEEGKFNLMLMECSICNEIIHPGCLKIKESEGFVNDELPNCWECPKC, with -0.343 ± 0.21.
Then LPHTAVCLVCGEAGKEDTVEEEEGKFNLMLMECSICNEIIHPGCLKIKESEGAVNDELPNCWECPKC, with 0.047 ± 0.098.
Then LPHTAVCLVCGEAGKEDTVEEEEGKFNLMLMECSICNEIIHPGCLKIKESEGGVNDELPNCWECPKC, with -0.078 ± 0.096; and LPHTAVCLVCGEAGKEDTVEEEEGKFNLMLMECSICNEIIHPGCLKIKESEGNVNDELPNCWECPKC, with -0.136 ± 0.21.
In the case of LPHTAVCLVCGEAGKEDTVEEEEGKFNLMLMECSICNEIIHPGCLKIKESEGIVNDELPNCWECPKC, the abundance fitness is -0.07 ± 0.13.
Consider LPHTAVCLVCGEAGKEDTVEEEEGKFNLMLMECSICNEIIHPGCLKIKESEGPVNDELPNCWECPKC, for which the abundance fitness is -0.15 ± 0.095.
In the case of LPHTAVCLVCGEAGKEDTVEEEEGKFNLMLMECSICNEIIHPGCLKIKESEGSVNDELPNCWECPKC, the abundance fitness stood at 0.006 ± 0.1.
Take LPHTAVCLVCGEAGKEDTVEEEEGKFNLMLMECSICNEIIHPGCLKIKESEGHVNDELPNCWECPKC: the abundance fitness is -0.346 ± 0.2.
Then LPHTAVCLVCGEAGKEDTVEEEEGKFNLMLMECSICNEIIHPGCLKIKESEGQVNDELPNCWECPKC, with 0.164 ± 0.094.
In the case of LPHTAVCLVCGEAGKEDTVEEEEGKFNLMLMECSICNEIIHPGCLKIKESEGMVNDELPNCWECPKC, the abundance fitness is -0.045 ± 0.11.
Consider LPHTAVCLVCGEAGKEDTVEEEEGKFNLMLMECSICNEIIHPGCLKIKESEGEVNDELPNCWECPKC, for which the abundance fitness was found to be 0.003 ± 0.11.
In the case of LPHTAVCLVCGEAGKEDTVEEEEGKFNLMLMECSICNEIIHPGCLKIKESEGKVNDELPNCWECPKC, the abundance fitness was -0.167 ± 0.14.
Regarding LPHTAVCLVCGEAGKEDTVEEEEGKFNLMLMECSICNEIIHPGCLKIKESEGCVNDELPNCWECPKC, the abundance fitness is -0.027 ± 0.16.
Then LPHTAVCLVCGEAGKEDTVEEEEGKFNLMLMECSICNEIIHPGCLKIKESEGVKNDELPNCWECPKC, with -0.125 ± 0.1; and LPHTAVCLVCGEAGKEDTVEEEEGKFNLMLMECSICNEIIHPGCLKIKESEGVANDELPNCWECPKC, with 0.089 ± 0.12; and LPHTAVCLVCGEAGKEDTVEEEEGKFNLMLMECSICNEIIHPGCLKIKESEGVPNDELPNCWECPKC, with -0.065 ± 0.25.
As for LPHTAVCLVCGEAGKEDTVEEEEGKFNLMLMECSICNEIIHPGCLKIKESEGVRNDELPNCWECPKC, the abundance fitness was found to be 0.042 ± 0.14.
For LPHTAVCLVCGEAGKEDTVEEEEGKFNLMLMECSICNEIIHPGCLKIKESEGVWNDELPNCWECPKC, the abundance fitness was -0.124 ± 0.21.
Then LPHTAVCLVCGEAGKEDTVEEEEGKFNLMLMECSICNEIIHPGCLKIKESEGVTNDELPNCWECPKC, with 0.126 ± 0.12; and LPHTAVCLVCGEAGKEDTVEEEEGKFNLMLMECSICNEIIHPGCLKIKESEGVQNDELPNCWECPKC, with 0.135 ± 0.49; and LPHTAVCLVCGEAGKEDTVEEEEGKFNLMLMECSICNEIIHPGCLKIKESEGVENDELPNCWECPKC, with 0.024 ± 0.12.
As for LPHTAVCLVCGEAGKEDTVEEEEGKFNLMLMECSICNEIIHPGCLKIKESEGVCNDELPNCWECPKC, the abundance fitness is -0.275 ± 0.16.
With LPHTAVCLVCGEAGKEDTVEEEEGKFNLMLMECSICNEIIHPGCLKIKESEGVSNDELPNCWECPKC the figure was -0.284 ± 0.16.
Then LPHTAVCLVCGEAGKEDTVEEEEGKFNLMLMECSICNEIIHPGCLKIKESEGVGNDELPNCWECPKC, with -0.182 ± 0.08; and LPHTAVCLVCGEAGKEDTVEEEEGKFNLMLMECSICNEIIHPGCLKIKESEGVDNDELPNCWECPKC, with -0.119 ± 0.11.
Then LPHTAVCLVCGEAGKEDTVEEEEGKFNLMLMECSICNEIIHPGCLKIKESEGVINDELPNCWECPKC, with 0.126 ± 0.12.
